Results from IntAct's records for PubMed 23222643.

B1: Formin-like protein 3 (Mus musculus), Q6ZPF4-1 (parent)
chain: MGNLESTDGGPGEPPSVPLLLPPGKTPMPEPCELEERFALVLSSMNLPPDKARLLRQYDNEKKWDLICDQERFQVKNPPHTYIQKLQSFLDPNVTRKKFRRRVQESTKVLRELEISLRTNHIGWVREFLNDENKGLDVLVDYLSFAQCSVMFDFEGLESGDDGAFDKLRSWSRSIEDLQPPNALSAPFTNSLARSARQSVLRYSTLPGRRALKNSRLVSQKDDVHVCILCLRAIMNYQYGFNLVMSHPHAVNEIALSLNNKNPRTKALVLELLAAVCLVRGGHEIILAAFDNFKEVCKELHRFEKLMEYFRNEDSNIDFMVACMQFINIVVHSVEDMNFRVHLQYEFTKLGLEEFLQKSRHTESEKLQVQIQAYLDNVFDVGGLLEDAETKNVALEKVEELEEHVSHLTEKLLDLENENMMRVAELEKQLLQREKELESIKETYENTSNQVHTLRRLIKEKEEAFQRRCHLEPSARGLESMGGEALARVGPTELTEGIPPSDLDLLAPAPPTEETLPLPPPPAPPLPPPPPPLPDKCPPAPPLPGAAPSVVLTVGLSAIRIKKPIKTKFRLPVFNWTALKPNQINGTVFSELDDEKILEDLDLDRFEELFKTKAQGPALDLICSKNKTAQKAASKVTLLEANRAKNLAITLRKAGRSAEEICRAIHTFDLQTLPVDFVECLMRFLPTEAEVKLLRQYERERQPLEELAAEDRFMLLFSKVERLTQRMAGMAFLGNFQDNLQMLTPQLNAIIAASASVKSSQKLKQMLEIILALGNYMNSSKRGAVYGFKLQSLDLLLDTKSTDRKMTLLHFIALTVKEKYPELANFWQELHFVEKAAAVSLENVLLDVKELGRGMELIRRECSIHDNSVLRNFLSTNEGKLDKLQRDAKTAEEAYNAVVRYFGESPKTTPPSVFFPVFVRFIRSYKEAEQENEARKKQEEVMREKQLAQEAKKLDAKTPSQRNKWQQQELIAELRRRQAKEHRPVYEGKDGTIEDIITVLKSVPFTARTAKRGSRFFCDAAHHDESNC

Variants of: B1
Conditions: with acts_rabit ACTA1, P68135

Row | Variant | effect of a mutation on the interaction
1 | I649A | decreasing interaction strength
